The conditions of data set [1]: cited from earlier work; for Duration of action: in vivo.
The next data set deals with HCT-116 cells. Description: DD regulated luciferase, western blot and luciferase activity. Format: cell-based, human. Conditions: 1 μM Shield-1 or 10 μM Trimethoprim, 24 h. The source says:
DD regulated luciferase can be used to track cells in vivo e.g. T cells. Firefly luciferase or Renilla luciferase may be utilized as the payload. HCT-116 cells were stably transduced with the constitutive (OT-RLuc-001) or DD regulated constructs (OT-RLuc-002, OT-RLuc-003, OT-RLuc-004, OT-RLuc-005 and OT-RLuc-006). […] Blots were also probed with anti-GAPDH antibody to ensure uniform protein loading in all samples. […] (FIG. 59A).
Ligand dependent activity of Renilla and firefly luciferase constructs was measured using coelentrazine and luciferin substrates respectively. […] Luciferase activity was measured as luminescence reading using a luminometer and the values were compared to control samples consisting of lysis buffer and substrate.
(Immunoblotting shows a protein as a band on a membrane.)

Another data set has as its system HCT116 cells. In words: Combination mutation analysis, TMP dose response MFI. Format: cell-based, human. The source says: Mutations identified by random mutagenesis were combined with mutations identified by site directed mutagenesis.

Here are results for ten molecules from patent US12104178B2, “DHFR tunable protein regulation” (Obsidian Therapeutics, Inc., priority 2017, dated 2024).

The Cmax is the highest concentration seen after dosing.

Like-named read-outs stand apart in the source and are kept apart here. Some results are limits rather than exact numbers.

For the molecule `CN(Cc1cnc2nc(N)nc(N)c2n1)c1ccc(C(=O)N[C@@H](CCC(=O)O)C(=O)O)cc1` [Methotrexate], the highest concentration (Cmax) in data set [1] (12 g/m^2 infusion) is 1500 nM. The Duration of action in data set [1] was greater than 12 h.
Take `COc1cc(Cc2cnc(N)nc2N)cc(OC)c1OC` [Trimethoprim]: the peak concentration (Cmax) in data set [1] (IV, approved dose IV 20 mg/kg/6 hr) was 25000 nM; in data set [1] (PO, approved dose PO up to 20 mg/kg/day) it was 1000 nM. For the same molecule, the Duration of action in data set [1] is 2 to 72 h.

B1: OT-RLuc-006: DD regulated Renilla luciferase (protein)
chain: MTSKVYDPEQRKRMITGPQWWARCKQMNVLDSFINYYDSEKHAENAVIFLHGNAASSYLWRHVVPHIEPVARCIIPDLIGMGKSGKSGNGSYRLLDHYKYLTAWFELLNLPKKIIFVGHDWGACLAFHYSYEHQDKIKAIVHAESVVDVIESWDEWPDIEEDIALIKSEEGEKMVLENNFFVETMLPSKIMRKLEPEEFAAYLEPFKEKGEVRRPTLSWPREIPLVKGGKPDVVQIVRNYNAYLRASDDLPKMFIESDPGFFSNAIVEGAKKFPNTEFVKVKGLHFSQEDAPDEMGKYIKSFVERVLKNEQSGISLIAALAVDYVIGMENAMPWNLPADLAWFKRNTLNKPVIMGRHTWESIGRPLPGRKNIILSSQPGTDDRVTWVKSVDEAIAACGDVPEIMVIGGGRVIEQFLPKAQKLYLTHIDAEVEGDTHFPDYEPDDWESVFSEFHDADAQNSHSYCFEILERR
In the case of B1, the “Luciferase stabilization by western blot (FIG. 59A)” value (from here on “Luciferase stabilization”) in the data set on HCT-116 cells is reported as “modest stabilization of Renilla luciferase in the presence of their corresponding ligand”.

B2: OT-RLuc-004: DD regulated Renilla luciferase (protein)
chain: MISLIAALAVDYVIGMENAMPWNLPADLAWFKRNTLNKPVIMGRHTWESIGRPLPGRKNIILSSQPGTDDRVTWVKSVDEAIAACGDVPEIMVIGGGRVIEQFLPKAQKLYLTHIDAEVEGDTHFPDYEPDDWESVFSEFHDADAQNSHSYCFEILERRSGTSKVYDPEQRKRMITGPQWWARCKQMNVLDSFINYYDSEKHAENAVIFLHGNAASSYLWRHVVPHIEPVARCIIPDLIGMGKSGKSGNGSYRLLDHYKYLTAWFELLNLPKKIIFVGHDWGACLAFHYSYEHQDKIKAIVHAESVVDVIESWDEWPDIEEDIALIKSEEGEKMVLENNFFVETMLPSKIMRKLEPEEFAAYLEPFKEKGEVRRPTLSWPREIPLVKGGKPDVVQIVRNYNAYLRASDDLPKMFIESDPGFFSNAIVEGAKKFPNTEFVKVKGLHFSQEDAPDEMGKYIKSFVERVLKNEQ
Turning to B2, in the data set on HCT-116 cells, the “Luciferase stabilization” value is “modest stabilization of Renilla luciferase in the presence of their corresponding ligand”.

B3: OT-RLuc-001: constitutive Renilla luciferase construct (protein, listed as Renilla reniformis)
chain: MTSKVYDPEQRKRMITGPQWWARCKQMNVLDSFINYYDSEKHAENAVIFLHGNAASSYLWRHVVPHIEPVARCIIPDLIGMGKSGKSGNGSYRLLDHYKYLTAWFELLNLPKKIIFVGHDWGACLAFHYSYEHQDKIKAIVHAESVVDVIESWDEWPDIEEDIALIKSEEGEKMVLENNFFVETMLPSKIMRKLEPEEFAAYLEPFKEKGEVRRPTLSWPREIPLVKGGKPDVVQIVRNYNAYLRASDDLPKMFIESDPGFFSNAIVEGAKKFPNTEFVKVKGLHFSQEDAPDEMGKYIKSFVERVLKNEQ
For the molecule B3, in the data set with HCT-116 cells, the “Luciferase activity (FIG. 59B)” value is “high luciferase activity both in the presence and absence of ligand”; the “Luciferase stabilization” value was “expression of Renilla luciferase both in the presence and absence of ligand”.

B4: OT-DHFRC-029: combination mutant hDHFR (I17V, Y122I) (protein, UniProt P00374 1-187, looked up, variant I17V Y122I)
Dihydrofolate reductase: MVGSLNCIVAVSQNMGVGKNGDLPWPPLRNEFRYFQRMTTTSSVEGKQNLVIMGKKTWFSIPEKNRPLKGRINLVLSRELKEPPQGAHFLSRSLDDALKLTEQPELANKVDMVWIVGGSSVIKEAMNHPGHLKLFVTRIMQDFESDTFFPEIDLEKYKLLPEYPGVLSDVQEEKGIKYKFEVYEKND
For the molecule B4, the MFI with HCT116 cells (DMSO, 48 h) amounted to 3041; with HCT116 cells (TMP dose (log) −4, 48 h) it was 158659; with HCT116 cells (TMP dose (log) −4.48, 48 h), 115339; in the data set on HCT116 cells (TMP dose (log) −4.95, 48 h), 66170; with HCT116 cells (TMP dose (log) −5.43, 48 h), 23454; in the data set on HCT116 cells (TMP dose (log) −5.91, 48 h), 6966. The MFI in the data set with HCT116 cells (TMP dose (log) −6.39, 48 h) stood at 4355; in the data set with HCT116 cells (TMP dose (log) −6.86, 48 h), 3439. Also, the Stabilization ratio in the data set on HCT116 cells (TMP dose (log) −4) was 52.17; in the data set with HCT116 cells (TMP dose (log) −4.48), 37.93; with HCT116 cells (TMP dose (log) −4.95), 21.76; in the data set on HCT116 cells (TMP dose (log) −5.43), 7.71; in the data set with HCT116 cells (TMP dose (log) −5.91), 2.29; in the data set with HCT116 cells (TMP dose (log) −6.39) it was 1.43. In the data set on HCT116 cells (TMP dose (log) −6.86), the Stabilization ratio is listed as 1.13.

B5: OT-hDHFRC-032: combination mutant hDHFR (Y122I, H131R, E144G) (protein, UniProt P00374 1-187, looked up, variant Y122I H131R E144G)
Dihydrofolate reductase: MVGSLNCIVAVSQNMGIGKNGDLPWPPLRNEFRYFQRMTTTSSVEGKQNLVIMGKKTWFSIPEKNRPLKGRINLVLSRELKEPPQGAHFLSRSLDDALKLTEQPELANKVDMVWIVGGSSVIKEAMNHPGRLKLFVTRIMQDFGSDTFFPEIDLEKYKLLPEYPGVLSDVQEEKGIKYKFEVYEKND
With B5, the MFI is 2627 in the data set on HCT116 cells (DMSO, 48 h); 49891 in the data set on HCT116 cells (TMP dose (log) −4, 48 h); 12247 with HCT116 cells (TMP dose (log) −4.48, 48 h); 5092 in the data set with HCT116 cells (TMP dose (log) −4.95, 48 h); 3246 with HCT116 cells (TMP dose (log) −5.43, 48 h); 2826 with HCT116 cells (TMP dose (log) −5.91, 48 h). The MFI is 2694 with HCT116 cells (TMP dose (log) −6.39, 48 h) and 2704 in the data set with HCT116 cells (TMP dose (log) −6.86, 48 h). Moreover, the Stabilization ratio with HCT116 cells (TMP dose (log) −4) was determined as 18.99; in the data set on HCT116 cells (TMP dose (log) −4.48), 4.66; in the data set with HCT116 cells (TMP dose (log) −4.95) it was 1.94; in the data set with HCT116 cells (TMP dose (log) −5.43), 1.24; in the data set with HCT116 cells (TMP dose (log) −5.91) it was 1.08; with HCT116 cells (TMP dose (log) −6.39), 1.03. Also, the Stabilization ratio with HCT116 cells (TMP dose (log) −6.86) amounted to 1.03.

B6: OT-hDHFRC-031: combination mutant hDHFR (N127Y, Y122I) (protein, UniProt P00374 1-187, looked up, variant N127Y Y122I)
Dihydrofolate reductase: MVGSLNCIVAVSQNMGIGKNGDLPWPPLRNEFRYFQRMTTTSSVEGKQNLVIMGKKTWFSIPEKNRPLKGRINLVLSRELKEPPQGAHFLSRSLDDALKLTEQPELANKVDMVWIVGGSSVIKEAMYHPGHLKLFVTRIMQDFESDTFFPEIDLEKYKLLPEYPGVLSDVQEEKGIKYKFEVYEKND
For the molecule B6, the MFI in the data set with HCT116 cells (DMSO, 48 h) is on record as 2565; with HCT116 cells (TMP dose (log) −4, 48 h) it was 145144; with HCT116 cells (TMP dose (log) −4.48, 48 h), 98805; in the data set with HCT116 cells (TMP dose (log) −4.95, 48 h), 53282; in the data set on HCT116 cells (TMP dose (log) −5.43, 48 h), 15743; with HCT116 cells (TMP dose (log) −5.91, 48 h), 5576. Moreover, the MFI with HCT116 cells (TMP dose (log) −6.39, 48 h) was 3345; with HCT116 cells (TMP dose (log) −6.86, 48 h), 2922. The Stabilization ratio came out at 56.59 in the data set on HCT116 cells (TMP dose (log) −4); 38.52 in the data set with HCT116 cells (TMP dose (log) −4.48); 20.77 with HCT116 cells (TMP dose (log) −4.95); 6.14 in the data set on HCT116 cells (TMP dose (log) −5.43); 2.17 with HCT116 cells (TMP dose (log) −5.91); 1.30 with HCT116 cells (TMP dose (log) −6.39). In the data set on HCT116 cells (TMP dose (log) −6.86), the Stabilization ratio came out at 1.14.

B7: OT-hDHFRC-030: combination mutant hDHFR (Y122I, M140I) (protein, UniProt P00374 1-187, looked up, variant Y122I M140I)
Dihydrofolate reductase: MVGSLNCIVAVSQNMGIGKNGDLPWPPLRNEFRYFQRMTTTSSVEGKQNLVIMGKKTWFSIPEKNRPLKGRINLVLSRELKEPPQGAHFLSRSLDDALKLTEQPELANKVDMVWIVGGSSVIKEAMNHPGHLKLFVTRIIQDFESDTFFPEIDLEKYKLLPEYPGVLSDVQEEKGIKYKFEVYEKND
With B7, the MFI in the data set on HCT116 cells (DMSO, 48 h) worked out at 2539; in the data set with HCT116 cells (TMP dose (log) −4, 48 h), 66732; in the data set with HCT116 cells (TMP dose (log) −4.48, 48 h), 20890; with HCT116 cells (TMP dose (log) −4.95, 48 h), 6641; with HCT116 cells (TMP dose (log) −5.43, 48 h), 3494; in the data set with HCT116 cells (TMP dose (log) −5.91, 48 h), 2766. The MFI was found to be 2618 in the data set on HCT116 cells (TMP dose (log) −6.39, 48 h) and 2643 in the data set with HCT116 cells (TMP dose (log) −6.86, 48 h). Also, the Stabilization ratio in the data set on HCT116 cells (TMP dose (log) −4) is recorded as 26.28; in the data set with HCT116 cells (TMP dose (log) −4.48) it was 8.23; with HCT116 cells (TMP dose (log) −4.95), 2.62; with HCT116 cells (TMP dose (log) −5.43), 1.38; in the data set on HCT116 cells (TMP dose (log) −5.91) it was 1.09; in the data set on HCT116 cells (TMP dose (log) −6.39), 1.03. In the data set on HCT116 cells (TMP dose (log) −6.86), the Stabilization ratio amounted to 1.04.

B8: OT-RLuc-005: DD regulated Renilla luciferase (protein)
chain: MTSKVYDPEQRKRMITGPQWWARCKQMNVLDSFINYYDSEKHAENAVIFLHGNAASSYLWRHVVPHIEPVARCIIPDLIGMGKSGKSGNGSYRLLDHYKYLTAWFELLNLPKKIIFVGHDWGACLAFHYSYEHQDKIKAIVHAESVVDVIESWDEWPDIEEDIALIKSEEGEKMVLENNFFVETMLPSKIMRKLEPEEFAAYLEPFKEKGEVRRPTLSWPREIPLVKGGKPDVVQIVRNYNAYLRASDDLPKMFIESDPGFFSNAIVEGAKKFPNTEFVKVKGLHFSQEDAPDEMGKYIKSFVERVLKNEQSGGVQVETISPGDGRTFPKRGQTCVVHYTGMLGDGKKVDSSRDRNKPFKFMLGKQEVIRGWEEGVAQMSVGQGAKLTISPDYAYGATGHPGIIPPHATLVFDVELLELE
On to B8, for which the “Luciferase stabilization” value in the data set with HCT-116 cells is recorded as “modest stabilization of Renilla luciferase in the presence of their corresponding ligand”.
